{
  "source": "patent US20050100540A1",
  "about": "“Platelet-activating factor acetylhydrolase” (priority 1993, published 2005)",
  "molecules": {"B1": {"name": "PAF-AH: Recombinant human plasma platelet-activating factor acetylhydrolase (beginning at Ile42) expressed in E. coli from construct pUC trp AH (protein)", "chain": "IQVLMAAASFGQTKIPRGNGPYSVGCTDLMFDHTNKGTFLRLYYPSQDNDRLDTLWIPNKEYFWGLSKFLGTHWLMGNILRLLFGSMTTPANWNSPLRPGEKYPLVVFSHGLGAFRTLYSAIGIDLASHGFIVAAVEHRDRSASATYYFKDQSAAEIGDKSWLYLRTLKQEEETHIRNEQVRQRAKECSQALSLILDIDHGKPVKNALDLKFDMEQLKDSIDREKIAVIGHSFGGATVIQTLSEDQRFRCGIALDAWMFPLGDEVYSRIPQPLFFINSEYFQYPANIIKMKKCYSPDKERKMITIRGSVHQNFADFTFATGKIIGHMLKLKGDIDSNVAIDLSNKASLAFLQKHLGLHKDFDQWDCLIEGDDENLIPGTNINTTNQHIMLQNSSGIEKYN"}},
  "key": {"[1]": {"test_system": "OVA-induced eosinophil infiltration of the trachea", "test": "Antigen-induced eosinophil recruitment to trachea", "type": "in vivo, mouse", "settings": "750 units IV before and 24 h after aerosolized OVA (group 4)", "method": "Recombinant PAF-AH enzyme of the invention was also tested for efficacy in a model of antigen-induced eosinophil recruitment. The accumulation of eosinophils in the airway is a characteristic feature of late phase immune responses which occur in asthma, rhinitis and eczema. BALB/c mice (Charles River) were sensitized by two intraperitoneal injections consisting of 1 μg of ovalbumin (OVA) in 4 mg of aluminum hydroxide (Imject alum, Pierce Laboratories, Rockford. Ill.) given at a 2 week interval. Fourteen days following the second immunization, the sensitized mice were challenged with either aerosolized OVA or saline as a control.\nPrior to challenge mice were randomly placed into four groups, with four mice/group. […] Mice in groups 2 and 4 were pretreated with 750 units of PAF-AH (activity of 5,500 units/ml given in 140 μl of PAF-AH buffer). Thirty minutes following administration of PAF-AH or buffer, mice in groups 1 and 2 were exposed to aerosolized PBS as described below, while mice in groups 3 and 4 were exposed to aerosolized OVA. Twenty-four hours later mice were treated a second time with either 140 μl of buffer (groups 1 and 3) or 750 units of PAF-AH in 140 μl of buffer (groups 2 and 4) given by intravenous injection.\nEosinophil infiltration of the trachea was induced in the sensitized mice by exposing the animals to aerosolized OVA. […]"}, "[2]": {"test_system": "low and high density lipoproteins", "test": "Association with lipoproteins on incubation with DFP-treated human plasma", "type": "binding", "settings": "human plasma previously treated with DFP", "text": "An unusual feature of the native plasma PAF acetylhydrolase is that it is tightly associated with lipoproteins in circulation, and its catalytic efficiency is influenced by the lipoprotein environment. […] PAF-AH protects low density lipoproteins from modification under oxidizing conditions in vitro and may have such a role in vivo. Administration of PAF-AH is thus indicated for the suppression of the oxidation of lipoproteins in atherosclerotic plaques as well as to resolve inflammation."}, "[3]": {"test": "Plasma PAF-AH activity in rats of the NEC experiments", "type": "in vivo, rat", "method": "The plasma PAF-AH activities were also determined in the rats utilized in the experiment described above. PAF-AH activity was determined as follows. Prior to the tail vein injection, blood samples were obtained. Subsequently blood samples were obtained from the vena cava just prior to the injection of PAF and at the time of sacrifice. Approximately 50 μl of blood was collected in heparinized capillaries. The plasma was obtained following centrifugation (980×g for 5 minutes). The enzyme was assayed as previously described by Yasuda and Johnston, Endocrinology, 130:708-716 (1992)."}, "[4]": {"test": "Degradation of oxidized phospholipid by recombinant PAF-AH", "type": "biochemical", "settings": "oxidized phospholipid with oxidatively cleaved sn-2 fatty acid"}, "PAF-induced NEC": {"test_system": "PAF-induced NEC", "test": "PAF-induced necrotizing enterocolitis (NEC) model"}, "[5]": {"test": "Pharmacokinetics of PAF-AH in rat circulation (double mAb capture ELISA)", "type": "in vivo", "settings": "2000 U IV, mean ±SEM", "method": "Four rats received 2000 U of PAF-AH by IV injection in a 300 μl volume. Plasma was collected at various time points and stored at 4° C. and plasma concentrations of PAF-AH were determined by ELISA using a double mAb capture assay. In brief, monoclonal antibody 90G11D (Example 13) was diluted in 50 mM carbonate buffer pH 9.6 at 100 ng/ml and immobilized on Immulon 4 ELISA plates overnight at 4° C. After extensive washing with PBS containing 0.05/Tween 20, the plates were blocked for 1 hour at room temperature with 0.5% fish skin gelatin (Sigma) diluted in PBS. Serum samples diluted in PBS with 15 mM CHAPS were added in duplicate to the washed ELISA plate and incubated for 1 hour at room temperature. After washing, a biotin conjugate of monoclonal antibody 90F2D (Example 13) was added to the wells at a concentration of 5 μg/ml diluted in PBS and incubated for 1 hour at room temperature. After washing, 50 μl of a 1:1000 dilution of ExtraAvidin (Sigma) was added to the wells and incubated for 1 hour at room temperature. After washing, wells were developed using OPD as a substrate and quantitated. Enzyme activity was then calculated from a standard curve. […]"}, "PAF-induced pleurisy": {"test_system": "PAF-induced pleurisy", "test": "PAF-induced pleurisy (Evans blue vascular leakage)", "type": "in vivo, rat", "settings": "300 μl PAF-AH IV 15 minutes before 2.0 nmol PAF into pleural space, 1 hour"}, "[6]": {"settings": "2¼ hours after injection of 25,500 units"}},
  "note": "“Also recorded” adds a separate entry of the source.",
  "data": [
    {"molecule": "B1", "values": [
      {"measurement": "Eosinophils in the submucosal tissue of the trachea", "setting": "[1]", "result": "very few eosinophils in the submucosal tissue"},
      {"measurement": "Association with lipoproteins", "setting": "[2]", "result": "associated with low and high density lipoproteins"},
      {"measurement": "Plasma PAF-AH activity at time of sacrifice, Group 2", "setting": "[3]; [6]", "result": "1771±308"},
      {"measurement": "Plasma PAF-AH activity at time of sacrifice, Group 4", "setting": "[3]; [6]", "result": "1939±478"},
      {"measurement": "Plasma PAF-AH activity at time of sacrifice, groups 2 and 4", "setting": "[3]; [6]", "result": "1855±257", "unit": "units"},
      {"measurement": "Plasma PAF-AH activity after 15 minutes", "setting": "[3]; 2040 units IV", "result": "363 units per ml of plasma"},
      {"measurement": "Plasma PAF-AH activity after 15 minutes, group 2", "setting": "[3]; 25,500 units IV, 1 unit equals 1 nmoles×min^−1×ml^−1 plasma, no PAF", "result": "2249±341", "unit": "units"},
      {"measurement": "Plasma PAF-AH activity after 15 minutes, group 4", "setting": "[3]; 25,500 units IV, PAF group", "result": "2494±623", "unit": "units"},
      {"measurement": "Resultant plasma enzyme activity", "setting": "[3]; less than 1,020 total units IV", "result": "≤ 160"},
      {"measurement": "Degradation of glutaroylPC", "setting": "[4]", "result": "rapidly degraded"},
      {"measurement": "Animals that developed NEC, PAF challenge at 24 and 48 hours after injection", "setting": "PAF-induced NEC; 8,500 units IV once", "result": 100, "unit": "%"},
      {"measurement": "NEC development, PAF challenge within first eight hours after injection", "setting": "PAF-induced NEC; 8,500 units IV once", "result": "none of the rats developed NEC"},
      {"measurement": "Gross findings of bowel, PAF-AH in the absence of PAF", "setting": "PAF-induced NEC; 25,500 units IV, no PAF", "result": "no effect on the gross findings"},
      {"measurement": "NEC development, enzyme 15 minutes after PAF", "setting": "PAF-induced NEC; 25,500 units into vena cava", "result": "all animals developed NEC"},
      {"measurement": "NEC development, enzyme two minutes following PAF", "setting": "PAF-induced NEC; 25,500 units into vena cava, PAF 0.4 μg", "result": "None of the animals developed NEC"},
      {"measurement": "NEC development after PAF", "setting": "PAF-induced NEC; 25,500 units via tail vein 15 minutes prior to PAF", "result": "the bowel appeared to be normal; also recorded: completely protected"},
      {"measurement": "Lowest protective amount of enzyme", "setting": "PAF-induced NEC; IV 15 minutes prior to PAF 0.4 μg", "result": 2040, "unit": "units"},
      {"measurement": "NEC development (gross findings)", "setting": "PAF-induced NEC; less than 2,000 units of the enzyme", "result": "developed NEC"},
      {"measurement": "Plasma enzyme level at one hour", "setting": "[5]", "result": 374, "unit": "U/ml"},
      {"measurement": "Reduction in inflammation (vascular leakage, Evans blue)", "setting": "PAF-induced pleurisy", "result": "> 80", "unit": "%"}
    ]}
  ]
}
